Measurements: paper PMC12354898, “Collagen VI microfibril structure reveals mechanism for molecular assembly and clustering of inherited pathogenic mutations” (Nature Communications, 2025)

Biological target: T1, mini-collagen VI α1 chain, ColVIα1^C1C2 (human, UniProt P12109 566-1028)
T1 construct: human collagen VI α1 chain, UniProt P12109 aa 566-1028: nine Gly-X-Y triplets, coiled coil region, C1 and C2 vWA domains; Synthetic gene cloned into pHLSec with AgeI and XhoI; one chain of the disulphide-bonded heterotrimer α1α2α3^C1C2; also called α1 chain of α1α2α3^C1C2; source: Expi293F, co-transfected with the other two chains, secreted; in conditioned media, and purified (Strep-Tactin XT, …)
T1 sequence (looked up): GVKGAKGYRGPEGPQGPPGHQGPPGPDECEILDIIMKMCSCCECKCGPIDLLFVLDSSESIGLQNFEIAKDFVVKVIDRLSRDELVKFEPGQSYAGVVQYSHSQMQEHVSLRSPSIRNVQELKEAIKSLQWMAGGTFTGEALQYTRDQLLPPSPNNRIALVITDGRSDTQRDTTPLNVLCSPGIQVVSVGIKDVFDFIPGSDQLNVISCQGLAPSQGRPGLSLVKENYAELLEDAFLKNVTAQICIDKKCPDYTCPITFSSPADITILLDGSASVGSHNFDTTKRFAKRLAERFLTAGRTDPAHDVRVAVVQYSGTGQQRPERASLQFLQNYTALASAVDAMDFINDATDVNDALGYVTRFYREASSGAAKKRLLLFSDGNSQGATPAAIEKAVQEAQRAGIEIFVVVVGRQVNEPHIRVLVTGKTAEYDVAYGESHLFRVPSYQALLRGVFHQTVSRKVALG
Experiment: pull-down; three chains co-expressed in Expi293F; sequential affinity steps from conditioned media (Strep-Tactin XT for Twin-Strep α2, Ni-Sepharose for His α1, anti-FLAG M2 for α3; Fig. 5f: Twin-strep then His-tag); eluates on reduced and non-reduced SDS-PAGE
Conditions: partners not purified

B1: mini-collagen VI α2 chain, ColVIα2^C1C2 (domain or fragment, human, UniProt P12110 564-1019, looked up)
chain: GEPGPRGPRGVPGPEGEPGPPGDPGLTECDVMTYVRETCGCCDCEKRCGALDVVFVIDSSESIGYTNFTLEKNFVINVVNRLGAIAKDPKSETGTRVGVVQYSHEGTFEAIQLDDERIDSLSSFKEAVKNLEWIAGGTWTPSALKFAYDRLIKESRRQKTRVFAVVITDGRHDPRDDDLNLRALCDRDVTVTAIGIGDMFHEKHESENLYSIACDKPQQVRNMTLFSDLVAEKFIDDMEDVLCPDPQIVCPDLPCQTELSVAQCTQRPVDIVFLLDGSERLGEQNFHKARRFVEQVARRLTLARRDDDPLNARVALLQFGGPGEQQVAFPLSHNLTAIHEALETTQYLNSFSHVGAGVVHAINAIVRSPRGGARRHAELSFVFLTDGVTGNDSLHESAHSMRKQNVVPTVLALGSDVDMDVLTTLSLGDRAAVFHEKDYDSLAQPGFFDRFIRWIC
notes: human collagen VI α2 chain, UniProt P12110 aa 564-1019: nine Gly-X-Y triplets, coiled coil region, C1 and C2 vWA domains; Synthetic gene cloned into pHLSec with AgeI and XhoI; density for two N-linked glycans on this chain in the cryoEM map; also called α2 chain of α1α2α3^C1C2; source: Expi293F, co-transfected with the other two chains, secreted; in conditioned media, and purified (Strep-Tactin …)
binding result: binds
